Drawing on PMC8528861, “Structural and functional analysis of target recognition by the lymphocyte adaptor protein LNK” (Nature Communications, 2021), this text covers IC50 for four molecules.

Where no end group is shown, it is not given here. [ ]: non-standard residue; d: D form. pY = N[C@@H](Cc1ccc(OP(=O)(O)O)cc1)C(=O)O A value given as a limit tells only on which side of the number the result lay.

Experiment [1] has as its target T1, M. musculus LNK SH2 domain (residues 324–446), wild type (mouse, UniProt O09039 324-446).
T1 construct: LNK (SH2B3), mouse, SH2 domain with N-terminal helix, residues 324-446; vector pET-50b(+); also called WT LNK SH2; SH2B3 SH2 domain; source: E. coli (tuner (DE3), BL21(DE3) or C43), purified (His-Tag resin, TEV cleavage, SEC); not shown: NusA, N-terminal, cleaved
In words: SPR; competition: biotinylated IL6ST pY757 peptide immobilised on a streptavidin chip; 0.1–0.5 μM WT LNK SH2 domain pre-incubated with phosphopeptide and flowed over; 10 mM HEPES pH 7.4, 150 mM NaCl, 3.4 mM EDTA, 0.005% Tween 20; response normalised to LNK only, IC50 fit. Conditions: both partners purified.

Experiment [2] concerns the target T1, M. musculus LNK SH2 domain (residues …). The description is as above. The settings on record: both partners purified. The source holds these as a separate data set.

T1 sequence (O09039 324-446): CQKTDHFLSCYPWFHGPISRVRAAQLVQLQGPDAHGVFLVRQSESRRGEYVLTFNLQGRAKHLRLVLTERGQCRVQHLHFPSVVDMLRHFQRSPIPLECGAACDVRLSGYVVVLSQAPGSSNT

Consider PHLK[pY]LYLVVS (also: phosphotyrosine at 454 (Y5 or Y7), EPOR, intracellular site Y454) [EPOR pY454 phosphopeptide], for which the IC50 in experiment [1] stood at 661 nM.

B1: JAK2 pY813 phosphopeptide (12-mer) (peptide)
peptide: FTPD[pY]ELLTEND
notes: JAK2, stretch around Y813; also called WT pY813 peptide
As for B1, the figures for the IC50 in experiment [1] and in experiment [2] were 138 nM and 60 nM, respectively.

B2: MPL pY631 phosphopeptide (peptide)
peptide: LPLS[pY]WQQP
notes: MPL (TPO receptor), intracellular site Y631; also called TPOR pY631
The molecule B2 came in with an IC50 in experiment [1] of more than 10000 nM. Regarding FTPD[pY]RLLTEND [JAK2 pY813 peptide mutant +1R], the IC50 in experiment [2] is more than 5000 nM.
